Test results taken from article doi:10.1101/2021.04.22.440356.

Target: human ubiquitin (15N-ubiquitin of the peptide titration) (human) (UniProt P0CG48)
Experiment: NMR titration

short peptide from the YUH1 N-terminus (1-10), sequence (P35127 whole entry, looked up, tested part not stated): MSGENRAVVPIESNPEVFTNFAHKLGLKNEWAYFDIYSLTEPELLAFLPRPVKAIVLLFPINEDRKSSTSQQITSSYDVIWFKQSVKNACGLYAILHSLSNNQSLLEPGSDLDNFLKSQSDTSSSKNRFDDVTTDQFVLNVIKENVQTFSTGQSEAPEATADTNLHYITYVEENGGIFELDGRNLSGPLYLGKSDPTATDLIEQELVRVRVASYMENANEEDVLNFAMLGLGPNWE

Kd: 180 µM
Substance: short peptide from the YUH1 N-terminus (1-10) (from UniProt P35127 1-10)
